# Read-outs that look alike come from different tables or passages of the source. Positions of bridges follow the written chain, without caps; N, C: chain ends. Non-standard residues stand in square brackets, D forms with d. dPhe(2-CF3) = N[C@H](Cc1ccccc1C(F)(F)F)C(=O)O; dPhe(4-CN) = N#Cc1ccc(C[C@@H](N)C(=O)O)cc1; dPhe(2-Me) = Cc1ccccc1C[C@@H](N)C(=O)O; dPhe(2-F) = N[C@H](Cc1ccccc1F)C(=O)O; Orn = NCCC[C@H](N)C(=O)O; Dab = NCC[C@H](N)C(=O)O
# B1: Ac-Arg-cyclo(Orn-Asn-D-Phe(2-F)-Arg-Trp-Glu)-NH2 (peptide)
# peptide: Ac-R[Orn]N[dPhe(2-F)]RWE-NH2
# modifications: lactam 2-7
# notes: also called No. 71
# B2: Ac-D-Arg-cyclo(Asp-Gln-D-Phe(2-Cl)-Arg-Trp-Lys)-NH2 (peptide)
# peptide: XDQXRWK
# modifications: N-terminal Ac; D-Arg 1; D-Phe(2-Cl) 4; lactam Asp 2-Lys 7; C-terminal NH2
# notes: also called No. 79
# B3: Ac-Arg-cyclo(Glu-Dab-D-Phe-Arg-Trp-Orn)-NH2 (peptide)
# peptide: Ac-RE[Dab][dF]RW[Orn]-NH2
# modifications: lactam 2-7
# B4: Ac-Arg-cyclo(Glu-Gln-D-Phe(4-CN)-Arg-Trp-Orn)-OH (peptide)
# peptide: Ac-REQ[dPhe(4-CN)]RW[Orn]-OH
# modifications: lactam 2-7
# notes: also called No. 86
# B5: Ac-Arg-cyclo(Orn-Asn-D-Phe(2-Me)-Arg-Trp-Glu)-NH2 (peptide)
# peptide: Ac-R[Orn]N[dPhe(2-Me)]RWE-NH2
# modifications: lactam 2-7
# notes: also called No. 74
# B6: Ac-Arg-cyclo(Glu-Gln-D-Phe(2-CF3)-Arg-Trp-Orn)-NH2 (peptide)
# peptide: Ac-REQ[dPhe(2-CF3)]RW[Orn]-NH2
# modifications: lactam 2-7
# notes: also called No. 114
# B7: Ac-D-Arg-cyclo(Asp-Gln-D-Phe(3-Cl)-Arg-Trp-Lys)-NH2 (peptide)
# peptide: XDQXRWK
# modifications: N-terminal Ac; D-Arg 1; D-Phe(3-Cl) 4; lactam Asp 2-Lys 7; C-terminal NH2
# notes: also called No. 80
# B8: Ac-Arg-cyclo(Orn-Gln-D-Phe(2-CF3)-Arg-Trp-Glu)-NH2 (peptide)
# peptide: Ac-R[Orn]Q[dPhe(2-CF3)]RWE-NH2
# modifications: lactam 2-7
# notes: also called No. 115
# What was measured:
# [1] = biological target: T1, human melanocortin-4 receptor (human, UniProt P32245 1-332); assay: cell-based or functional assay
# melanocortin-1 receptor = biological target: T2, melanocortin-1 receptor (mouse (B-16 melanoma cells); in some …, UniProt Q01727 1-315); assay: [I125]-NDP-α-MSH competition, MC1-R membranes
# T2 construct: whole, on cells; membrane homogenates; also called MC1-R; mouse B16 MC1-R
# Method: A competitive inhibition binding assay was performed for exemplified peptides according to the invention using membrane homogenates prepared from HEK-293 cells that express recombinant hMC4-R, hMC3-R, or hMC5-R, and from B-16 mouse melanoma cells (containing endogenous MC1-R). In some instances, HEK-293 cells that express recombinant hMC1-R were employed. Assays were performed in 96 well GF/B Millipore multiscreen filtration plates (MAFB NOB10) pre-coated with 0.5% bovine serum albumin (Fraction V). […] After incubation for 60 minutes at 37° C., the assay mixture was filtered and the membranes washed three times with ice-cold buffer. Filters were dried and counted in a gamma counter for bound radioactivity. […] Each assay was conducted in triplicate and the actual mean values are described, with results less than 0% reported as 0%. Ki values for test peptides of the present invention were determined using Graph-Pad Prism® curve-fitting software.
# [2] = biological target: T1, human melanocortin-4 receptor; assay: [I125]-NDP-α-MSH competition, hMC4-R HEK-293 membranes
# [3] = biological target: T1, human melanocortin-4 receptor; assay: cell-based or functional assay; remark: listed apart in the source
# [4] = biological target: T1, human melanocortin-4 receptor; assay: Ki of Table 1; receptor not given, taken as hMC4-R
# T1 sequence (P32245 whole entry): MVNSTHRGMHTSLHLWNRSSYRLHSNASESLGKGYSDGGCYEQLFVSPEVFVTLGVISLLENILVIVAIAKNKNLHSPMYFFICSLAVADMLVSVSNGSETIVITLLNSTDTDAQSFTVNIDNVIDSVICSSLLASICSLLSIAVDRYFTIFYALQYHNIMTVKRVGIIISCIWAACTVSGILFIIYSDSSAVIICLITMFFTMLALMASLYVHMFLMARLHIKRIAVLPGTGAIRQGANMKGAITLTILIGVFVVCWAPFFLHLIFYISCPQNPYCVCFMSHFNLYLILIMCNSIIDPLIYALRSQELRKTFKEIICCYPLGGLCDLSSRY
# T2 sequence (Q01727 whole entry): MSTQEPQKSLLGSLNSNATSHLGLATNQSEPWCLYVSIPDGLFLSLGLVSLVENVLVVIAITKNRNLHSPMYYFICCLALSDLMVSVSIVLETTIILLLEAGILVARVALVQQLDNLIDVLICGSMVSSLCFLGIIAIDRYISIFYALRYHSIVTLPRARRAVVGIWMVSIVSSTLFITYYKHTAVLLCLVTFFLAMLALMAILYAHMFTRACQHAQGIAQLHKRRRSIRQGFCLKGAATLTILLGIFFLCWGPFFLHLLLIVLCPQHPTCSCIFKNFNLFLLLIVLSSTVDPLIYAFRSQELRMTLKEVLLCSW
Binder,"EC50, cAMP, 0.1 ng/mL Doxycycline [1] [nM]","EC50, cAMP, 10 ng/mL Doxycycline [1] [nM]",Ki (melanocortin-1 receptor) [nM],Ki [2] [nM],"Intrinsic Activity, cAMP, 0.1 ng/mL Doxycycline [1] [%]","Intrinsic Activity, cAMP, 10 ng/mL Doxycycline [1] [%]","EC50, cAMP, 0.1 ng/mL Doxycycline [3] [nM]",Ki [4] [nM]
B1,1,0.085,335,9,,,,
B2,4,0.2,395,10,48,85,,
B3,,,,,,,0.33,0.65
B4,9,0.483,3970,40,36,96,,
B5,0.943,0.11,405,5,68,100,,
B6,1,0.185,93,8,73,117,,
B7,6,0.65,1750,7,13,86,,
B8,0.8,0.17,235,4,54,108,,

# — patent US20100311648A1 (AstraZeneca / MedImmune, published 2010)
